B1: NT^WT (human RyR2 residues 1-906, cMyc-tagged) (domain or fragment, UniProt Q92736 1-906, looked up)
chain: MADGGEGEDEIQFLRTDDEVVLQCTATIHKEQQKLCLAAEGFGNRLCFLESTSNSKNVPPDLSICTFVLEQSLSVRALQEMLANTVEKSEGQVDVEKWKFMMKTAQGGGHRTLLYGHAILLRHSYSGMYLCCLSTSRSSTDKLAFDVGLQEDTTGEACWWTIHPASKQRSEGEKVRVGDDLILVSVSSERYLHLSYGNGSLHVDAAFQQTLWSVAPISSGSEAAQGYLIGGDVLRLLHGHMDECLTVPSGEHGEEQRRTVHYEGGAVSVHARSLWRLETLRVAWSGSHIRWGQPFRLRHVTTGKYLSLMEDKNLLLMDKEKADVKSTAFTFRSSKEKLDVGVRKEVDGMGTSEIKYGDSVCYIQHVDTGLWLTYQSVDVKSVRMGSIQRKAIMHHEGHMDDGISLSRSQHEESRTARVIRSTVFLFNRFIRGLDALSKKAKASTVDLPIESVSLSLQDLIGYFHPPDEHLEHEDKQNRLRALKNRQNLFQEEGMINLVLECIDRLHVYSSAAHFADVAGREAGESWKSILNSLYELLAALIRGNRKNCAQFSGSLDWLISRLERLEASSGILEVLHCVLVESPEALNIIKEGHIKSIISLLDKHGRNHKVLDVLCSLCVCHGVAVRSNQHLICDNLLPGRDLLLQTRLVNHVSSMRPNIFLGVSEGSAQYKKWYYELMVDHTEPFVTAEATHLRVGWASTEGYSPYPGGGEEWGGNGVGDDLFSYGFDGLHLWSGCIARTVSSPNQHLLRTDDVISCCLDLSAPSISFRINGQPVQGMFENFNIDGLFFPVVSFSAGIKVRFLLGGRHGEFKFLPPPGYAPCYEAVLPKEKLKVEHSREYKQERTYTRDLLGPTVSLTQAAFTPIPVDTSQIVLPPHLERIREKLAENIHELWVMNKIELGWQYGP
notes: cardiac ryanodine receptor (RyR2), human, N-terminus residues 1-906; also called wild-type RyR2 N-terminus; RyR2-NT; source: HEK293, transiently transfected, in cell homogenate (cross-linking) or CHAPS-solubilized lysate (co-IP)
B2: NT^G357S (human RyR2 residues 1-906, cMyc-tagged, G357S) (domain or fragment, UniProt Q92736 1-906, looked up)
chain: MADGGEGEDEIQFLRTDDEVVLQCTATIHKEQQKLCLAAEGFGNRLCFLESTSNSKNVPPDLSICTFVLEQSLSVRALQEMLANTVEKSEGQVDVEKWKFMMKTAQGGGHRTLLYGHAILLRHSYSGMYLCCLSTSRSSTDKLAFDVGLQEDTTGEACWWTIHPASKQRSEGEKVRVGDDLILVSVSSERYLHLSYGNGSLHVDAAFQQTLWSVAPISSGSEAAQGYLIGGDVLRLLHGHMDECLTVPSGEHGEEQRRTVHYEGGAVSVHARSLWRLETLRVAWSGSHIRWGQPFRLRHVTTGKYLSLMEDKNLLLMDKEKADVKSTAFTFRSSKEKLDVGVRKEVDGMGTSEIKYSDSVCYIQHVDTGLWLTYQSVDVKSVRMGSIQRKAIMHHEGHMDDGISLSRSQHEESRTARVIRSTVFLFNRFIRGLDALSKKAKASTVDLPIESVSLSLQDLIGYFHPPDEHLEHEDKQNRLRALKNRQNLFQEEGMINLVLECIDRLHVYSSAAHFADVAGREAGESWKSILNSLYELLAALIRGNRKNCAQFSGSLDWLISRLERLEASSGILEVLHCVLVESPEALNIIKEGHIKSIISLLDKHGRNHKVLDVLCSLCVCHGVAVRSNQHLICDNLLPGRDLLLQTRLVNHVSSMRPNIFLGVSEGSAQYKKWYYELMVDHTEPFVTAEATHLRVGWASTEGYSPYPGGGEEWGGNGVGDDLFSYGFDGLHLWSGCIARTVSSPNQHLLRTDDVISCCLDLSAPSISFRINGQPVQGMFENFNIDGLFFPVVSFSAGIKVRFLLGGRHGEFKFLPPPGYAPCYEAVLPKEKLKVEHSREYKQERTYTRDLLGPTVSLTQAAFTPIPVDTSQIVLPPHLERIREKLAENIHELWVMNKIELGWQYGP
notes: cardiac ryanodine receptor (RyR2), human, N-terminus residues 1-906 with the CPVT mutation G357S; Mutation made by site-directed mutagenesis in the NT^WT plasmid; a variant reported in patients; also called type II^intra variant; source: HEK293, transiently transfected, in cell homogenate (cross-linking) or CHAPS-solubilized lysate (co-IP)
B3: NT^A77T (human RyR2 residues 1-906, cMyc-tagged, A77T) (domain or fragment, UniProt Q92736 1-906, looked up)
chain: MADGGEGEDEIQFLRTDDEVVLQCTATIHKEQQKLCLAAEGFGNRLCFLESTSNSKNVPPDLSICTFVLEQSLSVRTLQEMLANTVEKSEGQVDVEKWKFMMKTAQGGGHRTLLYGHAILLRHSYSGMYLCCLSTSRSSTDKLAFDVGLQEDTTGEACWWTIHPASKQRSEGEKVRVGDDLILVSVSSERYLHLSYGNGSLHVDAAFQQTLWSVAPISSGSEAAQGYLIGGDVLRLLHGHMDECLTVPSGEHGEEQRRTVHYEGGAVSVHARSLWRLETLRVAWSGSHIRWGQPFRLRHVTTGKYLSLMEDKNLLLMDKEKADVKSTAFTFRSSKEKLDVGVRKEVDGMGTSEIKYGDSVCYIQHVDTGLWLTYQSVDVKSVRMGSIQRKAIMHHEGHMDDGISLSRSQHEESRTARVIRSTVFLFNRFIRGLDALSKKAKASTVDLPIESVSLSLQDLIGYFHPPDEHLEHEDKQNRLRALKNRQNLFQEEGMINLVLECIDRLHVYSSAAHFADVAGREAGESWKSILNSLYELLAALIRGNRKNCAQFSGSLDWLISRLERLEASSGILEVLHCVLVESPEALNIIKEGHIKSIISLLDKHGRNHKVLDVLCSLCVCHGVAVRSNQHLICDNLLPGRDLLLQTRLVNHVSSMRPNIFLGVSEGSAQYKKWYYELMVDHTEPFVTAEATHLRVGWASTEGYSPYPGGGEEWGGNGVGDDLFSYGFDGLHLWSGCIARTVSSPNQHLLRTDDVISCCLDLSAPSISFRINGQPVQGMFENFNIDGLFFPVVSFSAGIKVRFLLGGRHGEFKFLPPPGYAPCYEAVLPKEKLKVEHSREYKQERTYTRDLLGPTVSLTQAAFTPIPVDTSQIVLPPHLERIREKLAENIHELWVMNKIELGWQYGP
notes: cardiac ryanodine receptor (RyR2), human, N-terminus residues 1-906 with the patient mutation A77T; Mutation made by site-directed mutagenesis in the NT^WT plasmid; a variant reported in patients; also called type II^inter variant; source: HEK293, transiently transfected, in cell homogenate (cross-linking) or CHAPS-solubilized lysate (co-IP)
B4: NT^R169L (human RyR2 residues 1-906, cMyc-tagged, R169L) (domain or fragment, UniProt Q92736 1-906, looked up)
chain: MADGGEGEDEIQFLRTDDEVVLQCTATIHKEQQKLCLAAEGFGNRLCFLESTSNSKNVPPDLSICTFVLEQSLSVRALQEMLANTVEKSEGQVDVEKWKFMMKTAQGGGHRTLLYGHAILLRHSYSGMYLCCLSTSRSSTDKLAFDVGLQEDTTGEACWWTIHPASKQLSEGEKVRVGDDLILVSVSSERYLHLSYGNGSLHVDAAFQQTLWSVAPISSGSEAAQGYLIGGDVLRLLHGHMDECLTVPSGEHGEEQRRTVHYEGGAVSVHARSLWRLETLRVAWSGSHIRWGQPFRLRHVTTGKYLSLMEDKNLLLMDKEKADVKSTAFTFRSSKEKLDVGVRKEVDGMGTSEIKYGDSVCYIQHVDTGLWLTYQSVDVKSVRMGSIQRKAIMHHEGHMDDGISLSRSQHEESRTARVIRSTVFLFNRFIRGLDALSKKAKASTVDLPIESVSLSLQDLIGYFHPPDEHLEHEDKQNRLRALKNRQNLFQEEGMINLVLECIDRLHVYSSAAHFADVAGREAGESWKSILNSLYELLAALIRGNRKNCAQFSGSLDWLISRLERLEASSGILEVLHCVLVESPEALNIIKEGHIKSIISLLDKHGRNHKVLDVLCSLCVCHGVAVRSNQHLICDNLLPGRDLLLQTRLVNHVSSMRPNIFLGVSEGSAQYKKWYYELMVDHTEPFVTAEATHLRVGWASTEGYSPYPGGGEEWGGNGVGDDLFSYGFDGLHLWSGCIARTVSSPNQHLLRTDDVISCCLDLSAPSISFRINGQPVQGMFENFNIDGLFFPVVSFSAGIKVRFLLGGRHGEFKFLPPPGYAPCYEAVLPKEKLKVEHSREYKQERTYTRDLLGPTVSLTQAAFTPIPVDTSQIVLPPHLERIREKLAENIHELWVMNKIELGWQYGP
notes: cardiac ryanodine receptor (RyR2), human, N-terminus residues 1-906 with the CPVT mutation R169L; Mutation made by site-directed mutagenesis in the NT^WT plasmid; a variant reported in patients; also called type I variant; source: HEK293, transiently transfected, in cell homogenate (cross-linking) or CHAPS-solubilized lysate (co-IP)

Target: the molecule itself
Assay: cross-linking; HEK293 cell homogenate supernatant (20 ug; 5 mM HEPES, 0.3 M sucrose, 10 mM DTT, pH 7.4) with glutaraldehyde (0.0025% or 260 umol/L) for 0-60 min; SDS-PAGE and Western blot with Ab^cMyc; monomer and tetramer bands by densitometry

Row | Protein | stoichiometry N
1 | B1 | 4
2 | B2 | 4
3 | B3 | 4
4 | B4 | 4

Reference: article PMC11703740, “Disparate molecular mechanisms in cardiac ryanodine receptor channelopathies” (Frontiers in Molecular Biosciences, 2024)
